In patent US20210292392A1 (TSB THERAPEUTICS BEIJING, published 2021):

B1: P4A-1H6 (antibody, human IgG1, kappa, V domains shown)
VH: QVQLVESGGGVVQPGRSLRLSCAASGFTFSSYGMHWVRQSPGKGLEWVAVISDDGSNQYYADSVKGRFTISRDNSKNTLYLQMNSLRVEDTAVYYCAKRGGYCSTTSCLLRWVYFDFWGQGTLATVSS
VL: DIQMTQSPSSLSASVGDRVTITCRASQSISSYLHWYQQKPGKAPNLLIYAASSLQSGVPSRFSGSGSGTDFTLTISSLQPEDFATYYCQQSYNTPTFGPGTKVDIKR
B2: P5A-1B6 (antibody, human IgG1, kappa, V domains shown)
VH: QVQLVESGGGVVQPGRSLRLSCAASGFTFSSYAMHWVRQAPGKGLEWVAVISYDGSNKYYADSVKGRFTISRDNSKNTLYLQMNSLRAEDTAVYYCARDGQAITMVQGVIGPPFDYWGQGTLVTVSS
VL: not shown
B3: P5A-1B8 (antibody, human IgG1, kappa, V domains shown)
VH: EVQLVESGGGLIQPGGSLRLSCAASGFTVSSNYMSWVRQAPGKGLEWVSVIYPGGSTFYADSVKGRFTISRDNSKNTLYLQMNSLRAEDTAVYYCARETLAFDYWGQGTLVTVSS
VL: DIQLTQSPSFLSASVGDRVTITCRASQGISSYLAWYQQKPGKAPKLLIYAASTLQSGVPSRFSGSGSGTEFTLTISSLQPEDFATYYCQQLNSYPPAFGGGTKVEIKR
B4: P22A-1D1 (antibody, human IgG1, kappa, V domains shown)
VH: EVQLVESGGGLIQPGGSLRLSCAASGFTVSSNYMSWVRQAPGKGLEWVSVIYSGGSTYYADSVKGRFTISRDNSKNTLYLQMNSLRAEDTAVYYCARDRDYYGMDVWGQGTTVTVSS
VL: DIQLTQSPSFLSASVGDRVTITCRASQGISSYLAWYQQKPGKAPKLLIYAASTLQSGVPSRFSGSGSGTEFTLTISSLQPEDFATYYCLHLNSYRTFGLGTKVEIKR
B5: P5A-1D1 (antibody, V domains shown)
VH: EVQLVESGGGLIQPGGSLRLSCAASGLTVSSNYMSWVRQAPGKGLEWVSVIYSGGSTYYADSVKGRFTISRDNSKNTLYLQMNSLRAEDTAVYYCARDLYYYGMDVWGQGTTVTVST
VL: DIQLTQSPSFLSASVGDRVTITCRASQGISSYLAWYQQKPGKAPKLLIYAASTLQSGVPSRFSGSGSGTDFTLTISSLQPEDFATYYCQQLNSYPTFGQGTRLEIKR
B6: P5A-1D10 (antibody, human IgG1, lambda, V domains shown)
VH: QVQLVESGGGLVKPGGSLRLSCAASQFTFSDYSMTWIRQAPGKGLEWVSYISQSGSTIYYADSVKGRFTISRDNAKNSLYLQMNSLRAEDTAVYYCARGVSPSYVWGSYRSLYHFDYWGQGTLVTVSS
VL: QSALTQPASVSGSPGQSITISCTGTSSDVGGYNYVSWYQQHPGKAPKLMIYDVSNRPSGVSNRFSASKSGNTASLTISGLQAEDEADYYCSSFTSSTTVVVFGGGTKLTVLG
B7: P5A-2G9 (antibody, human IgG1, lambda, V domains shown)
VH: QVQLVESGGGVVQPGRSLRLSCAASGFTFSSYGMHWVRQAPGKGLEWVAVIWYDGSNKYYADSVKGRFTISRDNSKNTLYLQMNSLRAEDTAVYYCARWFHTGGYFDYWGQGTLVTVSS
VL: QPVLTQPPSSSASPGESARLTCTLPSDINVSSYNIYWYQQKPGSPPRYLLYYYSDSDKGQGSGVPSRFSGSKDASANTGILLISGLQSEDEADYYCMIWPSNALYVFGTGTKVTVLG
B8: P5A-3A1 (antibody, V domains shown)
VH: EVQLVESGGGLIQPGGSLRLSCAASGFTVSSNYMSWVRQAPGKGLEWVSVIYSGGSTYYADSVKGRFTISRDNSKNTLYLQMNSLRAEDTAVYYCARDYGDFYFDYWGQGTLVTVSS
VL: not shown
B9: P5A-3A6 (antibody, human IgG1, lambda, V domains shown)
VH: EVQLVESGGGLVQPGRSLRLSCAASGFTFDDYAMHWVRQAPGKGLEWVSGISWNSGTIGYADSVKGRFIISRDNAKNSLYLQMNSLRAEDTALYYCAGGGTMVRGVIAGGGTHPVDDYYGMDVWGQGTTVTVSS
VL: QSALTQPASVSGSPGQSITISCTGTSSDVGGYNYVSWYQQHPGKAPKLMIYDVSNRPSGVSNRFSGSKSGNTASLTISGLQAEDEADYYCSSYTSSSTVVFGGGTKLTVLG
B10: P5A-3C12 (antibody, human IgG1, kappa, V domains shown)
VH: QITLKESGPTLVKPTQTLTLTCTFSGFSLSTSGVGVGWIRQPPGKALEWLALIYWDDDKRYSPSLKSRLTITKDTSKNQVVLTMTNMDPVDTATYYCAHSLFLTVGYSSSWSPFDYWGQGTLVTVSS
VL: not shown
B11: P5A-2G7 (antibody, human IgG1, lambda, V domains shown)
VH: QVQLQESGPGLVKPSETLSLTCTVSGDSVSSGSYYWSWIRQPPGKGLEWIGYIYYSGSTNYNPSLKSRVTISVDTSKNQFSLKLSSVTAADTAVYYCARERCYYGSGRAPRCVWFDPWGQGTLVTVSS
VL: QSALTQPASVSGSPGQSITISCTGTSSDVGGYNYVSWYQQHPGKAPKLMIYDVSNRPSGVSNRFSGSKSGNTASLTISGLQAEDEADYYCSSYTSSSTLVVFGGGTKLTVLG
B12: P5A-2G9 (antibody, human IgG1, lambda, V domains shown)
VH: QVQLVESGGGVVQPGRSLRLSCAASGFTFSSYGMHWVRQAPGKGLEWVAVIWYDGSNKYYADSVKGRFTISRDNSKNTLYLQMNSLRAEDTAVYYCARWFHTGGYFDYWGQGTLVTVSS
VL: QPVLTQPPSSSASPGESARLTCTLPSDINVSSYNIYWYQQKPGSPPRYLLYYYSDSDKGQGSGVPSRFSGSKDASANTGILLISGLQSEDEADYYCMIWPSNALYVFGTGTKVTVLG
B13: P5A-1D2 (antibody, human IgG1, lambda, V domains shown)
VH: EVQLVESGGGLIQPGGSLRLSCAASGFIVSSNYMSWVRQAPGKGLEWVSIIYSGGSTYYADSVKGRFTISRDNSNNTLYLQMNSLRAEDTAVYYCARALQVGATSDYFDYWGQGTLVTVSS
VL: QSVLTQPPSVSGAPGQRVTISCTGSSSNIGAGYDVHWYQQLPGTAPKLLIYGNSNRPSGVPDRFSGSKSGTSASLAITGLQAEDETDYYCQSCDSSLSVVVFGGGTKLTVLG
B14: P2C-1D5 (antibody, V domains shown)
VH: not shown
VL: SYVLTQPPSVSVAPGKTARITCGGNNIGSKSVHWYQQKPGQAPVLVIYYDSDRPSGIPERFSGSNSGNTATLTISRVEAGDEADYYCQVWDSSSDHHVFGTGTKVTVLG
B15: P2C-1C8 (antibody, V domains shown)
VH: QVQLVESGGGVVQPGRSLRLSCAASGFTFRSYGMHWVRQAPGKGLEWVAVIWYDGSNKYYADSVKGRFTISRDNSKNTLYLQMNSLRAEDTAVYYCARDIEIVVVNIDYWGQGTLVTVSS
VL: not shown
B16: P2C-1C10 (antibody, V domains shown)
VH: QVQLVQSGAEVKKPGSSVKVSCKASGGTFSSYAIIWVRQAPGQGLEWMGGIIPIFGTANYAQKFQGRVTITADESTSTAYMELSSLRSEDTAVYYCARVVTGYYFDYWGQGTLVTVSS
VL: EIVLTQSPATLSLSPGERATLSCRASQSVSSYLAWYQQKPGQAPRLLIYDASNRATGIPARFSGSGSGTDFTLTISSLEPEDFAVYYCQQRSNWPSFGQGTKLEIKR
B17: P5A-2G7 (antibody, human IgG1, lambda, V domains shown)
VH: QVQLQESGPGLVKPSETLSLTCTVSGDSVSSGSYYWSWIRQPPGKGLEWIGYIYYSGSTNYNPSLKSRVTISVDTSKNQFSLKLSSVTAADTAVYYCARERCYYGSGRAPRCVWFDPWGQGTLVTVSS
VL: QSALTQPASVSGSPGQSITISCTGTSSDVGGYNYVSWYQQHPGKAPKLMIYDVSNRPSGVSNRFSGSKSGNTASLTISGLQAEDEADYYCSSYTSSSTLVVFGGGTKLTVLG
B18: P5A-3C8 (antibody, human IgG1, kappa, V domains shown)
VH: EVQLVESGGGLIQPGGSLRLSCAASGFTVSSNYMSWVRQAPGKGLEWVSFIYSGGSTYYADSVKGRFTISRDNSKNTLYLQMNSLRAEDTAVYYCARDLQEHGMDVWGQGTTVTVSS
VL: DIQLTQSPSSLSASVGDRVTITCRASQGISSYLAWYQQKPGKAPKLLIYAASTLQSGVPSRFSGSGSGTDFTLTISSLQPEDFATYYCQHLNSYPPGYTFGQGTKLEIKR
B19: P5A-1D2 (antibody, human IgG1, lambda, V domains shown)
VH: EVQLVESGGGLIQPGGSLRLSCAASGFIVSSNYMSWVRQAPGKGLEWVSIIYSGGSTYYADSVKGRFTISRDNSNNTLYLQMNSLRAEDTAVYYCARALQVGATSDYFDYWGQGTLVTVSS
VL: QSVLTQPPSVSGAPGQRVTISCTGSSSNIGAGYDVHWYQQLPGTAPKLLIYGNSNRPSGVPDRFSGSKSGTSASLAITGLQAEDETDYYCQSCDSSLSVVVFGGGTKLTVLG

molecular target: T1, full length spike (S) protein of SARS-CoV-2 (SARS-CoV-2, UniProt P0DTC2 14-1273); assay: cell-based or functional assay

Going from B1 to B2, the “IC90, Pesudovirus neutralization” value rises from 2.21 µg/mL to 4.2 µg/mL (1.9-fold).

Going from B3 to B4, the “IC90, Pesudovirus neutralization” value rises from 0.137 µg/mL to 0.399 µg/mL (2.9-fold).

Compared with B5, B6 is 190-fold higher in “IC90, Pesudovirus neutralization” value: 0.232 µg/mL for the first, 43.8 µg/mL for the second.

Going from B7 to B8, the “IC90, Pesudovirus neutralization” value rises from 0.498 µg/mL to 7.2 µg/mL (14-fold).

Compared with B9, B10 is 2.9-fold lower in “IC90, Pesudovirus neutralization” value: 2.77 µg/mL for the first, 0.955 µg/mL for the second.

First: B3
Second: B6
The “IC80, Pesudovirus neutralization” value of the first is 570-fold lower: 0.0509 µg/mL for the first, 28.9 µg/mL for the second.

First: B7
Second: B9
The “IC80, Pesudovirus neutralization” value of the first is 8.6-fold lower: 0.147 µg/mL for the first, 1.27 µg/mL for the second.

Going from B6 to B7, the “IC50, Pesudovirus neutralization” value falls from 5.72 µg/mL to 0.0158 µg/mL (360-fold).

For B9, the “IC50, Pesudovirus neutralization” value was 0.234 µg/mL.

molecular target: full length S protein of SARS-CoV-2 (on pseudovirus) (SARS-CoV-2, UniProt P0DTC2 14-1273); assay: cell-based or functional assay

First: B11
Second: B12
The “Pseudovirus IC50” value of the first is 3.6-fold lower: 0.0044 µg/mL for the first, 0.0158 µg/mL for the second.

For B13, the “Pseudovirus IC50” value was 0.0186 µg/mL.

Going from B11 to B12, the “Pseudovirus IC80” value rises from 0.0287 µg/mL to 0.147 µg/mL (5.1-fold).

With B13 the “Pseudovirus IC80” value was 0.102 µg/mL.

molecular target: T1, full length spike (S) protein of …; assay: cell-based or functional assay; remark: another data set of the same source

Going from B14 to B16, the “IC50, pseudovirus neutralization” value falls from 10.7 µg/mL to 2.62 µg/mL (4.1-fold).

Going from B14 to B15, the “Neutralizing activity (%) Mean at 0.0228624 µg/ml” value falls from 4.24% to -7.15%.

B16 was tested, and the “Neutralizing activity (%) Mean at 0.0228624 µg/ml” value was -2.34%.

Going from B14 to B15, the “Neutralizing activity (%) Mean at 0.0685871 µg/ml” value falls from 5.65% to 2.8%.

B16 was tested, and the “Neutralizing activity (%) Mean at 0.0685871 µg/ml” value was 7.78%.

Compared with B14, B15 is lower in “Neutralizing activity (%) Mean at 0.2057613 µg/ml” value: 8.66% for the first, 4.92% for the second.

With B16 the “Neutralizing activity (%) Mean at 0.2057613 µg/ml” value was 13.4%.

First: B14
Second: B15
The “Neutralizing activity (%) Mean at 0.6172839 µg/ml” value of the first is higher: 12.4% for the first, 10.1% for the second.

B16 was tested, and the “Neutralizing activity (%) Mean at 0.6172839 µg/ml” value was 5.92%.

Compared with B14, B15 is lower in “Neutralizing activity (%) Mean at 1.851852 µg/ml” value: 16.1% for the first, 8.39% for the second.

B16 was tested, and the “Neutralizing activity (%) Mean at 1.851852 µg/ml” value was 38.5%.

First: B14
Second: B15
The “Neutralizing activity (%) Mean at 5.555555 µg/ml” value of the first is higher: 33.6% for the first, 23.3% for the second.

With B16 the “Neutralizing activity (%) Mean at 5.555555 µg/ml” value was 88.9%.

Compared with B14, B15 is lower in “Neutralizing activity (%) Mean at 16.66667 µg/ml” value: 64.9% for the first, 34.7% for the second.

B16 was tested, and the “Neutralizing activity (%) Mean at 16.66667 µg/ml” value was 99.9%.

Compared with B14, B15 is lower in “Neutralizing activity (%) Mean at 50 µg/ml” value: 90.2% for the first, 59.2% for the second.

B16 was tested, and the “Neutralizing activity (%) Mean at 50 µg/ml” value was 100%.

molecular target: T1, full length spike (S) protein of …; assay: cell-based or functional assay; remark: another data set of the same source

First: B17
Second: B18
The “IC50, pseudovirus neutralization” value of the first is 1.5-fold lower: 0.016 µg/mL for the first, 0.024 µg/mL for the second.

For B19, the “IC50, pseudovirus neutralization” value was 0.035 µg/mL.
